Bridges are numbered along the chain shown (N, C = ends). Roman numbers before positions name the chains, in order.

In this test the target is T1, IL-1RAcP/ST2/IL-33 ternary complex (Homo sapiens, UniProt O95760+Q01638).
T1 construct: included the extracellular domains, K19-F328 and S21-E359, respectively; the cleaved mature proteins, S112-T270, A117-S269, and R2-S310, respectively; purchased Sino Biologicals ST2 10105-HCCH; IL1RAcP 10121-H08H; IL-33 10368-HNAE; host or cells: ST2 and IL1RAcP: HEK293; IL-33: E. coli
T1 sequence (Q01638 19-328 isoform Q01638-2): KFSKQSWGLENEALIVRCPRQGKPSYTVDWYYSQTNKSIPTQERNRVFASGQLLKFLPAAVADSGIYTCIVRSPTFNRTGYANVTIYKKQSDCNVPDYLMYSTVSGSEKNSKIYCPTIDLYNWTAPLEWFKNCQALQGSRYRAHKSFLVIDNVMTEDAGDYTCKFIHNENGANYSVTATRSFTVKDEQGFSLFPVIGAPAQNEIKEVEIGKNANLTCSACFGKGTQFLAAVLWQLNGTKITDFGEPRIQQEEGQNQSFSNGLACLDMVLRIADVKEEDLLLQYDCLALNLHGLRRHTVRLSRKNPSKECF
T1 sequence (O95760 112-270): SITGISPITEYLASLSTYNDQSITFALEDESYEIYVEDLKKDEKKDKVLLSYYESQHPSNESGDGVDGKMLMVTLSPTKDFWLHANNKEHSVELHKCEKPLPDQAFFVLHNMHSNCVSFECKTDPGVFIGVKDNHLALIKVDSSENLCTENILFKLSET
The test can be described thus: Crosslinking assay of ternary complex (trimer) formation with recombinant IL-33, ST2 and IL-1RAcP. Type of test: biochemical. The protocol:
MSTOP dose curves were performed with a crosslinking assay. Recombinant IL-33, ST2, and IL-1RAcP were combined as described above and incubated at RT for 30 m in PBS or treated with 10 μM of 3WJ scaffold, WT peptides, or MSTOP in a dose range of 10 μM to 1 nM (1:10 serial dilution). Following incubation, 1 μL of 2.5 mM Disuccinimidyl suberate (DSS, 83 μM) homobifunctional crosslinker was added and reactions were incubated for […] at RT., then quenched with 1 μL of 1 M Tris-HCl. Samples were then prepared for electrophoresis.
The native receptor has a KD value of 10 μM illustrative of the fact that the interaction is weak and transient (FIG. 3A). […] The prototype MSTOP was finally assessed for bioactivity via prevention of IL-33/ST2 signaling activation. The MSTOP was first tested in vitro with recombinant ST2, IL-33, and IL-1RAcP incubated together in its endogenous 1:1:1 stoichiometry for 30 minutes. Reactions were then treated with DSS homobifunctional NETS-based crosslinker (final concentration ˜85 μM) to tether formed trimers. Trimer resolved at the predicted 120 kDa in semi-native conditions, while unbound IL-1RAcP resolved at 50 kDa. Quantification of IL-1RAcP at 120 kDa was normalized against total lane IL-1RAcP input, with the untreated trimer control representing 100% trimerization. […]

As for “MSTOP: 3WJ DNA scaffold whose three DBCO staple strands carry cyclized azidolysine IL-1RAcP hotspot peptides; decoy for IL-33/ST2 (peptide 1 Ac-CKEYGIQRITC-NH2; peptide 2 Ac-AKVGSPKNAVPPC-NH2; peptide 3 Ac-CKGEVAKAAKVKC-NH2; disulfide I:1-I:11, III:1-III:13; thioether II:1-II:13; not fully specified (some residues); also: three peptides held on a 3-way junction DNA scaffold via DBCO staple strands)”, the “reduction of trimer formation” value (1 μM treatment) was “approximately 40%”. The “reduction in trimer formation” value (10 μM treatment, DSS crosslinking western blot) was found to be 70%.
